Measurements: paper doi:10.1101/2023.04.09.536162

Target: L-threonine aldolase from Neptunomonas marine (NmLTA), wild type (Neptunomonas marine)
Experiment: crystal structure

L-threonine aldolase from Neptunomonas marine (NmLTA), wild type (enzyme)
stoichiometry N: 4
